Target: endogenous Raf-1 of Rat-1 cells (rat (Rat-1 cells), UniProt P11345 1-648)
Assay: co-immunoprecipitation of endogenous proteins with RKIP antiserum
Description: For co-precipitation experiments of endogenous proteins, 2 ×10^7 Rat-1 cells were lysed by sonication in PBS, and the immunoprecipitates were washed 4 times with PBS.

binding result: binds
B1: endogenous RKIP of Rat-1 cells (other, rat (Rat-1 cells), UniProt P31044 2-187, looked up)
chain: AADISQWAGPLSLQEVDEPPQHALRVDYGGVTVDELGKVLTPTQVMNRPSSISWDGLDPGKLYTLVLTDPDAPSRKDPKFREWHHFLVVNMKGNDISSGTVLSEYVGSGPPKDTGLHRYVWLVYEQEQPLNCDEPILSNKSGDNRGKFKVESFRKKYHLGAPVAGTCFQAEWDDSVPKLHDQLAGK
notes: Endogenous protein in cell lysates
